This passage reports binding results from article PMC6070752.

Data set [1] addresses T1, His6-MgrA (Staphylococcus aureus NCTC8325) (UniProt Q2G0B1).
T1 sequence: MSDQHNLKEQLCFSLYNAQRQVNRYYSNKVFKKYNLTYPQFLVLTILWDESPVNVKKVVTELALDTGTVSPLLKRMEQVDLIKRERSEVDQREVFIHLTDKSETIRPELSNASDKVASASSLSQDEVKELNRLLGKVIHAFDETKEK
Description: EMSA. The settings on record: EMSA: 50 mM Tris-HCl pH 8.0, 200 mM NaCl, 25°C, 1 h, DNase I footprinting: 20 mM Tris-HCl pH 8.0, 100 mM NaCl, 5 mM MgCl2, 1 mM CaCl2, 2 mM DTT. (A gel shift assay detects complexes by their altered migration in electrophoresis.)

Data set [2] addresses T1, His6-MgrA (Staphylococcus aureus NCTC8325). Description: competition. The conditions noted are these: EMSA: 50 mM Tris-HCl pH 8.0, 200 mM NaCl, 25°C, 1 h, DNase I footprinting: 20 mM Tris-HCl pH 8.0, 100 mM NaCl, 5 mM MgCl2, 1 mM CaCl2, 2 mM DTT.

With “ACTTAAATACGAATTCAGGCAACTTAATTGTGTTAAATACAGTTTTGAATGCCTAACTGTATTTCTTTTCTCTTTAAAATACAGTTAAGTACATTATAAGATGTTGTGCGGATAAACAAACTAATTGCATCAAATTTATTTTAAAATAACAACAACAAAACGTTAAGCGAATAACATTTCGGTGATTTAAAAGCTACGCACGTTTTTGTTATCTTCAAATTTAAATTTTAAGGAGTGTTTTCAATGGAAGGTT (double strand) [psmβ promoter fragment (Ppsmβ-biotin), 243 bp]”, in data set [1], the binding result is recorded as “binds”.

Regarding “ACTTAAATACGAATTCAGGCAACTTAATTGTGTTAAATACAGTTTTGAATGCCTAACTGTATTTCTTTTCTCTTTAAAATACAGTTAAGTACATTATAAGATGTTGTGCGGATAAACAAACTAATTGCATCAAATTTATTTTAAAATAACAACAACAAAACGTTAAGCGAATAACATTTCGGTGATTTAAAAGCTACGCACGTTTTTGTTATCTTCAAATTTAAATTTTAAGGAGTGTTTTCAATGGAAGGTT (double strand) [unlabeled psmβ promoter fragment (Ppsmβ), 243 bp]”, in data set [2], the binding entry is listed as “binds”.
